Measurements from the nanobody polyreactivity screen of Harvey et al. (2022).

assay: yeast display, Sf9 membrane polyspecificity reagent, FACS + sequencing; frameworks hold sequencing errors
How it was run: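 Nanobodies from a synthetic yeast display library (Saccharomyces cerevisiae BJ5465), induced 36–48 hours with galactose, were stained 1 hour at 4 °C with 10% biotinylated, detergent-solubilized Sf9 membrane reagent, enriched on streptavidin microbeads, then FACS-sorted. Anti-HA (expression) and streptavidin (reagent binding) fluorescence set low and high (top ~1%) gates. Polyreactivity labels come from the gate of origin. Genes were colony-PCR amplified, MiSeq 2 × 250 sequenced and filtered by CDR length.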

Q: Which “polyreactivity (PSR sort gate)” value does the source give for “QVQLVESGGGLVQAGGSLRLSCAASGSIFWKYAMGWYRQAPGKERELVAAISWSDGSTYYADSVKGRFTISRDNAKNTVYLQMNSLKPEVTAVYYCNTPPQWLGRYITITFDYWGQGTQVTVSS” here?
A: The value was “low polyreactivity”.

Q: For “QVQLVESGGGLVQAGGSLRLSCAASGSIFPYYAMGWYRQAPGKERELVAAISSGGSTNYADSVKGRFTISRDNAKNTVYLQMNSLKPEDTAEYYCAARWSRIFRDRVKYWYDYWGQGTQVTVSS”, which “polyreactivity (PSR sort gate)” value is on record?
A: The value was “low polyreactivity”.

Q: Which “polyreactivity (PSR sort gate)” value does the source give for “QVQLVESGGGLVQAGGSLSLSCAASGYNFYKNAMGWYRPAPGKERELVAAISTRGGSTYYADSVKGRFTISRDNAQITVYLPMNSLKPEDTAVYYCAASQHRRDWGQGTQVTVSS” here?
A: The value was “high polyreactivity”.

Q: For “QVQLLESGGGLVQAGGSLRLSCAASGRIYLYAMGWYRQTPGKERELVAAISYSGGSTYYADSVKGRFTISRDNAKNTVYLQMNSLKPEDTAVYYCAAEAGSYWRWFWYDSWGQGTQVTVSS”, which “polyreactivity (PSR sort gate)” value is on record?
A: The value was “high polyreactivity”.

Q: With “QVQLVESGGGLVQAGGSLRLSCAASGITFRRYAMGWYRPAPGKERELVASISRGGSTYYADSVKGRFTISRDNAKNTVYLQMNSLTPEDTAVYYCAADVAGRYDYWGQGTQVTVSS” as the sequence, how does the “polyreactivity (PSR sort gate)” value read?
A: The value was “high polyreactivity”.

Q: Which “polyreactivity (PSR sort gate)” value does the source give for “QVQLVESRGGLVQAGGSLRLSCAASGRTFGGYAMGWYRQAPGKERELVAAISTRGGTTYYADSVKGRFTISRDNAKNTVYLQMNSLKPEDTAVYYCAAVYLYYYNRYYYWGQGSQVTVSS” here?
A: Its value is “high polyreactivity”.

Q: Which “polyreactivity (PSR sort gate)” value does the source give for “QVQLVESGGGLVQAGGSLRLSCAASGSIFPIYAMGWDRQAPGKERELVASINISGGRTYYADSVKGRFTISRDNAKNTVYLQMNSLKPEDSAVYYCAAEWYTTSEYDYWGQGTQVTVSS” here?
A: The value was “low polyreactivity”.

Q: Which “polyreactivity (PSR sort gate)” value does the source give for “QVQLVESGGGLVQAGGSLRLSCTASGIIFGTYAMGLYRQAPGKERELVAAISSSGVSTYYADSVKGRFTISRDNAKNTVYLQMNSLKPEDTAVYYCAAPLHYGYYYWGQGTQVTVSS” here?
A: The value was “high polyreactivity”.

Q: With “QVQLVESGGGLVQAGGSLRLSCAASGSSFDVYTMGWYRQAPGKERELVAAINTGGGSTYYADSVKGRFTISRDNAKNTVYLQMNSLKPEDTAVYYCAASVYHYGPLYYWGQGTQVTVSS” as the sequence, how does the “polyreactivity (PSR sort gate)” value read?
A: The value was “low polyreactivity”.

Q: Which “polyreactivity (PSR sort gate)” value does the source give for “QVQLVESGGGLVQAGGSLRLSCAASGSIFGVNYMGWYRQAPGKERELVAGLSSSGGSTYYADSVKGRFTISRDNAKNTVYLQMNSLKPEDTAVYDCAATQSRYYSDDPYYYWGQGTQVTVSS” here?
A: The value was “low polyreactivity”.

Q: Which “polyreactivity (PSR sort gate)” value does the source give for “QVQLVESGGGLVQAGGSLRLSCAGSGRIFLDKAMGWYRQAPGKERELVAAINGSGGSTYYADSVKGRFTISRDNAKNTVYLQMNSLKPKIPRSITATKRYIQSLWGFDYWGQGTQVTVSS” here?
A: The value was “low polyreactivity”.

Q: Which “polyreactivity (PSR sort gate)” value does the source give for “QVQLVESGGGLVQAGGSLRLSCAASGRTIGPYAMGWYRQAPGKERELVAAISGGGSTNYADSVKGRFTISRDNAKNTVSLQMKSLKPEDTAVYYCNTEYPISGEEEYWGQGTQVTVSS” here?
A: The value was “low polyreactivity”.

Q: Which “polyreactivity (PSR sort gate)” value does the source give for “QVQLVESGGGLVQAGGRLRLSCAASGSSFLGYVMGWSRQAPGKERELVAAITRSGGRTYYADSVKGRFTISRDNAKNTVYLQMTSLNPEDTAVYYCAALRGPSFHGYGYWGQGSQVTVSS” here?
A: Its value is “high polyreactivity”.

Q: With “QVQLVESGGGLVQAGGSLRLSCAASGITFTPNAMGWYRQAPGTEREFVAAITYSGGSTYYADSVKGRFTISRDNAKNTVYLQMNSLKPEDTAVYYCAAVYDLLYYEAYYYWGQGTQVTVSS” as the sequence, how does the “polyreactivity (PSR sort gate)” value read?
A: The value was “low polyreactivity”.

Q: With “QVQLVESGGGLVQAGGSLRLSCAASGSIFAYNAMGWYRQAPGKERELVAAISVSDGITYYADSVKGRFTISRDNAKNTVYLQMNSLKPEDTAVYYCAARTRGPYRAYDYWGQGTQVTVSS” as the sequence, how does the “polyreactivity (PSR sort gate)” value read?
A: Its value is “low polyreactivity”.

Q: For “QVQLVESGGGLVQAGGSLRLSCAASGRTFKRYAMGWYRQAPGKERELVARITYSGARTYYADSVKGRFTISRDNAKNTVYLQMNSLKPEDTAVYYCAAQQYWTSQYFRSATFDYWGQGTQVTVSS”, which “polyreactivity (PSR sort gate)” value is on record?
A: Its value is “high polyreactivity”.

Q: For “QVQHVESGGGLVQAGGSLRLSCAASGSTFRVNAMGWYRPAPGKERELVAGISKSGTSTYYADSVKGRFTISRDNAKNTVYLQMNSLKPEDTAVYYCIKGYYRHPDESDYWGQGTQVTVSS”, which “polyreactivity (PSR sort gate)” value is on record?
A: Its value is “high polyreactivity”.

Q: For “QVQLVESGGGLVQAGGSLRLICAASGRTFWNYAMGWYRQAPGKERELVAVISFSDGSTYYADSVKGRFTISRDNAKNTVYLQMNSLKPEDTAVYYGAAKGPRRWGSGFDYWGQGTQVTVSS”, which “polyreactivity (PSR sort gate)” value is on record?
A: Its value is “low polyreactivity”.

Q: For “QVQLVESGGGLVQAGGSLRLSCAASGITFSYYAMGWYRQAPGKERELVAASTSGGSTKYADSVKGRFTISRDNAKNTVYFQMNSLKPEDTAVYYCAVRIRRSHDYDYWGQGPQVTVSS”, which “polyreactivity (PSR sort gate)” value is on record?
A: Its value is “low polyreactivity”.

Q: Which “polyreactivity (PSR sort gate)” value does the source give for “QVQLVESGGGLVQAGGSLRLSCAASGFTFRYYAMGWYRQAPGKEREFVAAIRSSGTTTSYADSVKGRFTISRDNEKNTVYLQMNSLKPEDTAVYYCAAGYFGPQQYYYWGQGTQVTVSS” here?
A: Its value is “high polyreactivity”.

Q: With “QVQLVESGGGLVQAGGSLRLSCAASGFTFGRYAMGWYRQAPGKEREFVAGITWSGGSTSYADSVKGRFTISRDNAKNTVYLQMNSLKREDTAVYYSATRARYTRVHGRRYAYDYWGQGTQVTVSS” as the sequence, how does the “polyreactivity (PSR sort gate)” value read?
A: Its value is “high polyreactivity”.

Q: With “QVQLVESGGGLVQAGGSLRLSCAASGRIFAHFAMGGYRQAPGKEWELVAAIDSGGSTDYADSVKGRFTISRDNAKNTVYLQMNSLKPEDTAVYYCNAERAYLWWYNFDYWGQGTQVTVSS” as the sequence, how does the “polyreactivity (PSR sort gate)” value read?
A: The value was “low polyreactivity”.

Q: With “QVQLVESGGCLVQAGGSLRLSCASSGNIFTIYTMGWYRQAPGKERELVASIYRGGTTYYADSVKGRFTISRDNAKNTVYLQMNSLKPEDTAVYYCAVYSPRLRRVHTRGYWGQGTQVTVSS” as the sequence, how does the “polyreactivity (PSR sort gate)” value read?
A: The value was “high polyreactivity”.

Q: With “QVQLEESGGGLVQAGGSLRLSCAASGRIFLYKIMGSYREAPGQERDLVAAISWGTGSTYADSVKGRFTISRDNAINTVYLQIYRLKPEDTAVYYCDADSFMPPYYHWGQGTQVTVSS” as the sequence, how does the “polyreactivity (PSR sort gate)” value read?
A: Its value is “low polyreactivity”.

Q: With “QVQLVESGGGLVQAGGSLRLSCAASGSIFVLYAMGWYRQAPGKERELVAAITSAGSTYYADSVKGRFTISRDNAKNTVYLQMNSLKPEDTAVYYCAARRGASQRRYNYWGQGTQVTVSS” as the sequence, how does the “polyreactivity (PSR sort gate)” value read?
A: The value was “high polyreactivity”.

Q: For “QVQLVESGGGLVQAGGSLRLSCAASGSILYFYAMGWYRQAPGKEREFVAAISRSGGSTRYADSVKGRFTISRDNAKNTVYLQMNSLKPEDTAVYYCAATSRSYNDYDYWGQGTQVTVSS”, which “polyreactivity (PSR sort gate)” value is on record?
A: Its value is “high polyreactivity”.

Q: Which “polyreactivity (PSR sort gate)” value does the source give for “QVQLVESGRGLVQAGVSLRLSCAASGSIFEQYAMGWYRQAPGKERELVAAITISGGGTFYADSVKGRFTISRDNAKNTVYLQMNSLKPEDTAVYYCAKRGYYFWSRKYGYWGQGTQVTVSS” here?
A: Its value is “low polyreactivity”.

Q: For “QVQLVESGGGLVQAGGSLRLSCAASGRTFYEYAMGWYRQAPGKERELVAAITRSGGSTYYADSVKGRFTISRDNAKNTVYLQMNSLKPEDTAVYYCAADGIKGGVEYDYWGQGTQVTVSS”, which “polyreactivity (PSR sort gate)” value is on record?
A: Its value is “high polyreactivity”.

Q: With “QVQLVESGGGLVQAGGSLRLSCAASGSTFLLYAMGWYRPAPGKERELVATISWGGDGTYYADSVKGRFTISRDNAKNTVYLHLNSLKPEDSAVYYCAAYSYFGYYWDGQLPYRLPYDYWGQGTQVTLSS” as the sequence, how does the “polyreactivity (PSR sort gate)” value read?
A: The value was “low polyreactivity”.

Q: With “QVQLVESGGGLVQAGGRLRLSCAAYGRIFDYYAMGWYRPAPGKEREFVAGITSTGGSTYYADSVKGRFTISRDNAMNTVYFQMNSLKPEDTPVYYCNVVKRLRHGYDYWGQGNQVTVSS” as the sequence, how does the “polyreactivity (PSR sort gate)” value read?
A: Its value is “high polyreactivity”.

Q: For “QVQLVESGGGLVQEGGSLRLSWAASGSTFARYAMGWYRQAPGKERELVAAISRRGGSTYYADSVKGRFTISRDKAKNTVYVQMHRLKPEDTGVSYCAARYGIISSFEYDYWGQGTQVTVSS”, which “polyreactivity (PSR sort gate)” value is on record?
A: The value was “high polyreactivity”.

Q: With “QVQLVESGGGLVQAGGSLRLSCAASGRTFYTYAMGWYRQAPGKERELVAAISISGSRTYYADSVKGRFTISRDNAKNTVYLQMNSLKPEDTAVYYCAADRSYWAYVFQYVSYGEDYWGQGTQVTVSS” as the sequence, how does the “polyreactivity (PSR sort gate)” value read?
A: The value was “high polyreactivity”.

Q: With “QVQLEESAGRLVQAGGSLRLSCAASGYTFGYYAMGWYRQAPGKERQLVAAISWRGARTNYADSVKGRFTISRDNAKNTVYLQMNSLKPEDTAVYYCAAGYYYGYPPRDYWGQGTQVTVSS” as the sequence, how does the “polyreactivity (PSR sort gate)” value read?
A: Its value is “high polyreactivity”.

Q: For “QVQLVESGGGLVQAGGSLRLSCAASGITFLAYAMGWYRQAPGKERELVAGISKSGGNTYYADSVKGRFTISRDNAKNTVYLQMNSLKPEDTAVYYCAARYRLTYFDANYRYGYWGQGTQVTVSS”, which “polyreactivity (PSR sort gate)” value is on record?
A: Its value is “high polyreactivity”.

Q: For “QVQLVESGGGLVQAGGSLRLSCAASGLTFGLNAMGWYSQAPGKERELVAAITWSGGSTYYADSVKGRFTISRDNAKNTVYLQMNSLKPEDTAVYYCATDNLSVNGGYNYWGQGTQVTVSS”, which “polyreactivity (PSR sort gate)” value is on record?
A: Its value is “low polyreactivity”.

Q: Which “polyreactivity (PSR sort gate)” value does the source give for “QVQLVESGGGLVQAGGSLRLSCAASGRTFGDYAMGWYRQAPGKERELVAAISSSGGRTYYADSVKGRFTISRDNAKNTVYLQMNSLKPEDTAVYYCATDYLYVYGFEYYYWGQGTQVTVSS” here?
A: The value was “high polyreactivity”.

Q: With “QVQLVESGGGLVQAGGSLRLSCAASGSIFWRYDMGWLDRRLGKKGSSLPLLLVLVTTRTTQTPVKGRFTISRDNAKNTVYLQMNSLKPEDTAVYYCAADLRASGLKYEYWGQGTQVTVSS” as the sequence, how does the “polyreactivity (PSR sort gate)” value read?
A: Its value is “low polyreactivity”.

Q: Which “polyreactivity (PSR sort gate)” value does the source give for “QVQLVESVGGLVQAGGSLRLSCAASGSIFASNSMGWYRQETGKEREFVAAITWRTDRTYYADSVKGRFTISRDNAKNTLYFQMNSLKPEDTAVYYFAADTWFYRFYYWGQGTQVTVSS” here?
A: Its value is “high polyreactivity”.

Q: For “KVQLVESGAGLVQAGGSLRLSCAASVSNFTSHAMGWSRQAPGKEREFVAAISVGGGITYYADSVKGRFTISRDHEKNTVYLQMNSLNPEDTAVYYCDADGEYPHSDDFEYWGQVTQVTVSS”, which “polyreactivity (PSR sort gate)” value is on record?
A: The value was “low polyreactivity”.

Q: With “QVQLVESGGGLVQAGGSLRLSCAASGGIFDYYAMGWYRQAPGKERELVAAIRGGGSTNYADSVKGRFTISRDNAKNTVYLQMNSLKPEDTAVYYCAKRAGPEYDYWGQGTQVTVSS” as the sequence, how does the “polyreactivity (PSR sort gate)” value read?
A: Its value is “low polyreactivity”.

Q: For “QVQQQESGGGLVQEGGSLRLSCAASGYIFDYYYMGWYRQAPGKEREFVATISEGSTTNYADSVKGRFTTSRDNSKNTVYLQMNSLKPEDTAVYYCATDTVYGNDYWGQGTHVTVSS”, which “polyreactivity (PSR sort gate)” value is on record?
A: Its value is “low polyreactivity”.
